± gives the uncertainty stated by the source.
Experiment: self-splicing fitness, log relative to wild type (ln ratio); higher = more splicing; Tetrahymena group I intron in knt gene, E. coli kanamycin selection, DiMSum; sequences stand for … in CUCUCU…GGAGGGAAAAGUUAUCAGGCAUGCACCUGGUAGCUAGUCUUUAAACCAAUAGAUUGCAUCGGUUUAAAAGGCAAGACCGUCAAAUUGCGGGAAAGGGGUCAACAGCCGUUCAGUACCAAGUCUCAGGGGAAACUUUGAGAUGGCCUUGCAAAGGGUAUGGUAAUAAGCUGACGGACAUGGUCCUAACCACGCAGCCAAGUCCUAAGUCAACAGAUCUUCUGUUGAUAUGGAUGCAGUUCACAGACUAAAUGUCGGUCGGGGAAGAUGUAUUCUUCUCAUAAGAUAUAGUCGGACCUCUCCUUAAUGGGAGCUAGCGGAUGAAGUGAUGCAACACUGGAGCCGCUGGGAACUAAUUUGUAUGCGAAAGUAUAUUGAUUAGUUUUGGAGUACUCGUGGUCG
Method in brief: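 Pooled colonies went to amplicon sequencing on an Illumina HiSeq 2500 after six replicate transformations. The plates were LB agar with 100 μg/mL carbenicillin, 50 μM IPTG and 0.2% rhamnose, with or without 25 μg/mL kanamycin, incubated overnight at 37°C or 30°C. The E. coli BL21(DE3) library had all eight P1ex-region intron nucleotides randomised, the intron placed in the knt kanamycin-resistance gene on pET-22b(+). DiMSum fitness is the error-weighted combination of replicate fold changes, kanamycin against none, normalised to wild type.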

Row | Sequence | self-splicing fitness (ln) (30 °C) | self-splicing fitness (ln) (37 °C)
1 | UUGAAGCAAUAUUACGAUGG | -0.452 ± 0.07 | 0.232 ± 0.1
2 | UUGAAGCAAUAUUACGCAUA | -0.461 ± 0.072 | 0.189 ± 0.1
3 | UUGAAGCAAUAUUACGCCGA | 0.633 ± 0.2 | 0.737 ± 0.25
4 | UUGAAGCAAUAUUACGCUAU | -2.7 ± 0.25 | -1.45 ± 0.26
5 | UUGAAGCAAUAUUACGCUUU | -3.5 ± 0.23 | -2.56 ± 0.36
6 | UUGAAGCAAUAUUACGGAAC | -3.62 ± 0.32 | -2.08 ± 0.3
7 | UUGAAGCAAUAUUACGGCCU | -0.822 ± 0.13 | -0.147 ± 0.16
8 | UUGAAGCAAUAUUACGGGAC | -2.18 ± 0.3 | -2.34 ± 0.28
9 | UUGAAGCAAUAUUACGUCAA | -0.54 ± 0.083 | 0.078 ± 0.1
10 | UUGAAGCAAUAUUACGUCAC | -3.27 ± 0.21 | -1.25 ± 0.2
11 | UUGAAGCAAUAUUACGUCCU | -0.231 ± 0.18 | -0.346 ± 0.13
12 | UUGAAGCAAUAUUACGUCUA | 0.0429 ± 0.11 | 0.627 ± 0.12
13 | UUGAAGCAAUAUUACGUGGC | -3.36 ± 0.2 | -1.66 ± 0.22
14 | UUGAAGCAAUAUUACGUGUU | -4.53 ± 0.21 | -1.92 ± 0.14
15 | UUGAAGCAAUAUUACGUUAG | -0.587 ± 0.1 | 0.138 ± 0.12
16 | UUGAAGCAAUAUUACGUUUC | -3.35 ± 0.2 | -3.3 ± 0.32
17 | UUGCAGCAAUAUUACGAACA | -0.626 ± 0.17 | -1.24 ± 0.15
18 | UUGCAGCAAUAUUACGAAGC | -2.28 ± 0.3 | -0.93 ± 0.36
19 | UUGCAGCAAUAUUACGAAUC | – | -2.06 ± 0.47
20 | UUGCAGCAAUAUUACGAGUG | -1.61 ± 0.1 | -1.46 ± 0.13
21 | UUGCAGCAAUAUUACGCCGG | -0.957 ± 0.075 | -0.103 ± 0.12
22 | UUGCAGCAAUAUUACGCCUC | -2.47 ± 0.45 | -0.787 ± 0.37
23 | UUGCAGCAAUAUUACGCUGA | -3.27 ± 0.26 | -1.68 ± 0.17
24 | UUGCAGCAAUAUUACGGAAA | -2.52 ± 0.14 | -0.504 ± 0.1
25 | UUGCAGCAAUAUUACGGAAG | -3.02 ± 0.34 | -0.414 ± 0.14

Row | Sequence | self-splicing fitness (ln) (30 °C) | self-splicing fitness (ln) (37 °C)
26 | UUGCAGCAAUAUUACGGAGU | -4.51 ± 0.42 | -2.44 ± 0.2
27 | UUGCAGCAAUAUUACGGCUG | -3.43 ± 0.3 | -2.59 ± 0.24
28 | UUGCAGCAAUAUUACGGUGA | -1.44 ± 0.14 | 0.0799 ± 0.14
29 | UUGCAGCAAUAUUACGGUGC | -3.79 ± 0.26 | -2.67 ± 0.26
30 | UUGCAGCAAUAUUACGUUGG | -2.68 ± 0.15 | -2.42 ± 0.18
31 | UUGGAGCAAUAUUACGAAGA | -2.83 ± 0.41 | -2.53 ± 0.49
32 | UUGGAGCAAUAUUACGACGC | – | -2.47 ± 0.33
33 | UUGGAGCAAUAUUACGAGAC | – | -2.25 ± 0.5
34 | UUGGAGCAAUAUUACGAGAU | -2.83 ± 0.29 | -2.36 ± 0.36
35 | UUGGAGCAAUAUUACGAGGA | -3.13 ± 0.48 | -1.56 ± 0.27
36 | UUGGAGCAAUAUUACGAUGC | -1.76 ± 0.28 | –
37 | UUGGAGCAAUAUUACGCAGA | -2.13 ± 0.33 | -1.13 ± 0.16
38 | UUGGAGCAAUAUUACGCAUG | -3.5 ± 0.26 | -0.58 ± 0.13
39 | UUGGAGCAAUAUUACGCGUC | -4.81 ± 0.29 | -2.77 ± 0.24
40 | UUGGAGCAAUAUUACGCUGA | -1.98 ± 0.17 | -1.5 ± 0.16
41 | UUGGAGCAAUAUUACGCUGG | -1.62 ± 0.34 | -0.962 ± 0.32
42 | UUGGAGCAAUAUUACGGCCA | -2.23 ± 0.19 | -0.299 ± 0.15
43 | UUGGAGCAAUAUUACGGGCG | -3.99 ± 0.39 | -2.13 ± 0.31
44 | UUGGAGCAAUAUUACGGGGG | -2.12 ± 0.39 | -2.14 ± 0.5
45 | UUGGAGCAAUAUUACGGGUA | – | -2.02 ± 0.23
46 | UUGGAGCAAUAUUACGUCCA | -2.2 ± 0.2 | -1.74 ± 0.23
47 | UUGGAGCAAUAUUACGUGAC | -2.9 ± 0.41 | -0.119 ± 0.45
48 | UUGGAGCAAUAUUACGUUUG | -4.04 ± 0.25 | -2.92 ± 0.28
49 | UUGUAGCAAUAUUACGAGCU | -1.88 ± 0.22 | -0.4 ± 0.2
50 | UUGUAGCAAUAUUACGAGUG | -1.69 ± 0.14 | -0.408 ± 0.12

Row | Sequence | self-splicing fitness (ln) (30 °C) | self-splicing fitness (ln) (37 °C)
51 | UUGUAGCAAUAUUACGAUGC | – | -1.92 ± 0.43
52 | UUGUAGCAAUAUUACGCAAG | -1.29 ± 0.17 | -0.849 ± 0.2
53 | UUGUAGCAAUAUUACGCGAU | -3.54 ± 0.26 | -2.51 ± 0.25
54 | UUGUAGCAAUAUUACGCGCG | -1.25 ± 0.12 | -0.356 ± 0.18
55 | UUGUAGCAAUAUUACGCGCU | -2.05 ± 0.16 | -0.976 ± 0.11
56 | UUGUAGCAAUAUUACGCUCU | -1.21 ± 0.2 | -1.29 ± 0.15
57 | UUGUAGCAAUAUUACGCUGU | -3.02 ± 0.35 | -2.49 ± 0.27
58 | UUGUAGCAAUAUUACGGCUC | -1.79 ± 0.31 | 0.26 ± 0.24
59 | UUGUAGCAAUAUUACGGGAA | -2.13 ± 0.17 | -1.32 ± 0.16
60 | UUGUAGCAAUAUUACGGGAU | -4.01 ± 0.29 | -2.78 ± 0.26
61 | UUGUAGCAAUAUUACGGGUC | -3.03 ± 0.22 | -2.83 ± 0.4
62 | UUGUAGCAAUAUUACGUAGG | -2.12 ± 0.15 | -1.04 ± 0.23
63 | UUGUAGCAAUAUUACGUAUC | -4.12 ± 0.31 | -3.03 ± 0.31
64 | UUGUAGCAAUAUUACGUAUU | -3.29 ± 0.32 | -2.45 ± 0.3
65 | UUGUAGCAAUAUUACGUCAC | -2.56 ± 0.39 | –
66 | UUGUAGCAAUAUUACGUCAU | -2.87 ± 0.18 | -1.63 ± 0.13
67 | UUGUAGCAAUAUUACGUCGG | -1.21 ± 0.094 | -0.478 ± 0.093
68 | UUGUAGCAAUAUUACGUGAC | -2.34 ± 0.26 | -1.86 ± 0.33
69 | UUGUAGCAAUAUUACGUGUA | -1.34 ± 0.12 | -1.12 ± 0.15
70 | UUGUAGCAAUAUUACGUGUU | -2.7 ± 0.25 | -2.5 ± 0.24
71 | UUGUAGCAAUAUUACGUUAG | -2.36 ± 0.25 | -1.28 ± 0.21
72 | UUGUAGCAAUAUUACGUUUA | -1.36 ± 0.16 | -1.15 ± 0.17
73 | UUUAAGCAAUAUUACGAAAG | -3.48 ± 0.32 | -1.54 ± 0.25
74 | UUUAAGCAAUAUUACGACGG | -0.639 ± 0.11 | 0.382 ± 0.13
75 | UUUAAGCAAUAUUACGACUG | -0.203 ± 0.097 | 0.954 ± 0.12

Row | Sequence | self-splicing fitness (ln) (30 °C) | self-splicing fitness (ln) (37 °C)
76 | UUUAAGCAAUAUUACGAGUG | -1.38 ± 0.14 | -0.204 ± 0.13
77 | UUUAAGCAAUAUUACGAUUA | -0.637 ± 0.1 | -0.207 ± 0.11
78 | UUUAAGCAAUAUUACGCAGG | -0.857 ± 0.14 | -0.494 ± 0.2
79 | UUUAAGCAAUAUUACGCCAG | -1.08 ± 0.15 | -0.457 ± 0.2
80 | UUUAAGCAAUAUUACGCCUA | -1.34 ± 0.21 | 0.351 ± 0.21
81 | UUUAAGCAAUAUUACGCCUC | – | -0.852 ± 0.36
82 | UUUAAGCAAUAUUACGCGCA | -0.212 ± 0.11 | 0.0171 ± 0.15
83 | UUUAAGCAAUAUUACGCUAA | -2.34 ± 0.17 | -1.09 ± 0.19
84 | UUUAAGCAAUAUUACGCUAU | -2.94 ± 0.27 | -0.849 ± 0.21
85 | UUUAAGCAAUAUUACGGAGU | -3.04 ± 0.39 | -1.18 ± 0.43
86 | UUUAAGCAAUAUUACGGAUA | -1.12 ± 0.18 | -1.13 ± 0.18
87 | UUUAAGCAAUAUUACGGCAG | -0.39 ± 0.098 | 0.179 ± 0.15
88 | UUUAAGCAAUAUUACGGCCU | -1.69 ± 0.14 | -0.999 ± 0.17
89 | UUUAAGCAAUAUUACGGUCG | -0.794 ± 0.067 | -0.269 ± 0.089
90 | UUUAAGCAAUAUUACGUAUA | -1.95 ± 0.12 | -1.54 ± 0.14
91 | UUUAAGCAAUAUUACGUUUA | -2.69 ± 0.17 | -2.1 ± 0.11
92 | UUUCAGCAAUAUUACGAAGC | -0.935 ± 0.36 | –
93 | UUUCAGCAAUAUUACGACUC | -2.82 ± 0.18 | -0.13 ± 0.14
94 | UUUCAGCAAUAUUACGAGCG | -0.768 ± 0.09 | -0.289 ± 0.11
95 | UUUCAGCAAUAUUACGAGUC | -3.12 ± 0.29 | -1.97 ± 0.37
96 | UUUCAGCAAUAUUACGAUUU | -1.34 ± 0.098 | -0.0319 ± 0.12
97 | UUUCAGCAAUAUUACGCGGU | -3.46 ± 0.25 | -1.92 ± 0.2
98 | UUUCAGCAAUAUUACGCGUC | -3.56 ± 0.15 | -2.01 ± 0.14
